In patent US20210171652A1 (University of Pennsylvania, published 2021):
Positions count from the first letter of the chain named.

B1: KP2-23 Fab/phage clone (anti-Band 3, Wrb) (Fab, V domains shown)
VH: EVQLLESGPGLVKPSETLSLTCTVSGSSLSSAYGWNWIRQPPGKGLEWIGSIGGSRDNTNYNPSLKRRVTISKDTSKNQFSLKLKSVTAADTAVYYCAQRGAYGYSYFDYWGQGVLVAVSS
VL: ELTLTQSPATLSLSPGETATLSCRASQTVGRNLAWYQQRPGQAPNLLVHSAYFRATGIPDRFSGSGSGTDFTLTISSLEPEDAGVYHCQQYNDLLPLTFGGGTKVEIK
B2: KP3-19 Fab/phage clone (anti-Band 3, Wrb) (Fab, V domains shown)
VH: EVQLLESGPGLVKPSETLSLTCAVSGGSLSGGYDWYWIRQSPRKGLEYIGYIYDSRGTTNYNPSLKNRVTISIDTSKNHFSLNLKSVTAADTAVYYCARRVGYGATYFDLWGQGVLVTVSS
VL: B1 VL with T3V, L4M, T28S, R31S, R39K, N45K, Y52N, P59S, G68R, A83V
B3: KP3-07 Fab/phage clone (anti-Band 3, Wrb) (Fab, V domains shown)
VH: B1 VH with A118T
VL: ELVMTQSPATLSLSPGETATLSCRASQSIGSNLAWYQQKPGQAPKLLVHSANIRATGIPDRFIGSGSRTDFTLTISSLEPEDVGVYHCQQYNDFLPLTFGGGTKVEIK
B4: KP2-19 Fab/phage clone (anti-Band 3, Wrb) (Fab, V domains shown)
VH: EVQLLESGPGLVKPSETLSLTCAVSGGSINGGYDWTWIRQSPGKGLQWIGWIYGSRGTTNYNPSLRNRVTISIDTSRNQFSLRLSSLTAADTAVYYCAKRVGYGNSYFDSWGQGVLVTVSS
VL: ELTLTQSPATLSLSPGERATLSCRASQSVSSRLAWYQQKPGQAPRLLIYDASSRVTGIPDRFSGSGSGTDFTLTISSLEPEDVGVYHCQQYNDLLPLTFGGGTKVEIK
B5: KP2-14 Fab/phage clone (anti-Band 3, Wrb) (Fab, V domains shown)
VH: EVQLLESGPGLVKPSETLSLTCAVSGSSLSSAYGWNWIRQAPGKRLEWIGFIGGSRDNTNYNPSLRSRVTISKDTSKNHFSLKLTSVTAADTAVYFCARRGAFGNSYFDYWGQGVPVTVSS
VL: AAELTQSPATLSLSPGETATLSCRASESVGSSLAWYHQKPGQAPRLLVHSASFRATGIPDRFSGSGSRTEFTLTVSSLEPEDVGVYHCQQYNDLLPLTFGGGTKVEIK
B6: KP3-20 Fab/phage clone (anti-Band 3, Wrb) (Fab, V domains shown)
VH: EVQLLESGPGLVKPSETLSLTCAVSGYSISSGFAWNWIRQTPGKGLEWIGYIGGSRDNTNYNPSLKSRVTISKDTSKNQFSLKLTSMTAADTAMYYCARRGAYGNSYFDFWGQGVPVTVSS
VL: B5 VL with E27Q, S32N, L33V, H37Q, R45K, S52Y, F53Y, E70D, V75I
B7: KP3-06 Fab/phage clone (anti-Band 3, Wrb) (Fab, V domains shown)
VH: EVQLLESGPGLVRPSETLSVTCDVSGGSISSASWSWIRQAPGKRLEWIGAISGSGSPTNVNPSLKSRVTLSVDTSKNQLSLKLRSMTAADTAVYYCARRGGYGNRYFDYWGQGVAVTVSS
VL: B5 VL with E27Q, H37Q, R45K, S52Y, E70D, V75I
B8: KP2-17 Fab/phage clone (anti-Band 3, Wrb) (Fab, V domains shown)
VH: EVQLLESGPGLVKPSETLSLTCAVSGYSISSGYGWTWIRQPPGKGLEWIGYIGGSRGNANYNPSLKSRVTISKDTSKNQFSLKLTSVTAADTAVYYCARDGGYGERYLEFWGQGALVTVSS
VL: AAELTQSPAFRSVTLKEKVTITCQASQSIGSSLHWYQQKPDQSPKLLIKFASQSISGVPSRFSGSGYGTDFTLTINSLEAEDAATYYCHQSSSFPWTFGQGTKVEIK
B9: KP2-13 Fab/phage clone (anti-Band 3, Wrb) (Fab, V domains shown)
VH: EVQLLESGPGLVKPSETLSLTCAVSGGSISGGYDWSWIRQSPGKGLEWIGYIYDSRGTTNYNPSLRKRVAISIDTSRNQFSLNLRSLTAADTAVYYCARRAGYGSAYFDYWGQGVLVTVSS
VL: AAELTQSPATLSLAPGETATLSCRASQSIGTNLAWYHQKPGQPPKLLVHTAYVRATGIPNRFSGSGSRTDFTLTINSLQPEDVGVYHCQQYNDLLPLTFGGGTKIDIK
B10: KP3-12 Fab/phage clone (anti-Band 3, Wrb) (Fab, V domains shown)
VH: EVQLLESGPGLVKPSETLSLTCAVSGNSISSAYGWHWIRQVPGKGLEWIGSIGGSRGTTNYNPSLKSRGTISEDTSKNQFSLRLRSVSAADTAVYFCARDSGYSFRYFDFWGRGVLVTVSS
VL: B9 VL with T50S
B11: KP2-22 Fab/phage clone (anti-Band 3, Wrb) (Fab, V domains shown)
VH: EVQLLESGPGLVKPSETLSLTCAVSGDSISSGYGWSWIRQTPGKGLEWIGYIGGSRGNTNYNPSLKSRVTISKDTSKNQFSLKLSSVTAADTAVYYCARRAPYWGYSYLDYWGQGVLVTVSS
VL: B9 VL with A1E, A2L, E3T, P43S, T50S, N60D, I105V, D106E
B12: KP2-24 Fab/phage clone (anti-Band 3, Wrb) (Fab, V domains shown)
VH: EVQLLESGPGLVKPSETLSLTCTVSGYSISSGYGWGWIRQSPGKGLEWIGYFGGSRGNTNYNPSLKSRVTISQDTSKNQFSLKLKSVTAADTGIYYCARDSGYSRRWVDYWGQGVLVTVSS
VL: B9 VL with I29V, T50S, N60D
B13: KP2-15 Fab/phage clone (anti-Band 3, Wrb) (Fab, V domains shown)
VH: B9 VH with A70T, N83K
VL: B1 VL with E1A, L2A, T3E, L13V, T18A, R39K, N45K, Y52H, V85I
B14: KP2-20 Fab/phage clone (anti-Band 3, Wrb) (Fab, V domains shown)
VH: B9 VH with A70T, N83K
VL: B5 VL with E27Q, S32N, H37Q, R45K, A51G, F53V, E70D, T74I, V75I
B15: KP3-09 Fab/phage clone (anti-Band 3, Wrb) (Fab, V domains shown)
VH: EVQLLESGPGLVKPSETLSLTCAVSSLSLSSGFAWSWIRQPPGEGLEWIGSIGGSRDNVNYNPSLKSRVTISKDTSKNQFSLRLRSVTAADTAVYYCVTIHGYRNWYLDHWGQGVLVTVST
VL: AAELTQSPAILSLSPGETATLSCRASQSIGTSLAWYQQKPGQAPKLLVHSAYYRATDIPERFSGSGSRTDFTLTISSLEPEDVGVYHCQQYNDLLPLTFGGGTKVEIK

Molecular target: T1, Band 3 / glycophorin A (Wright b, Wrb epitope) on human red blood cells (human, UniProt P02724 20-150)
T1 construct: whole, on cells; also called Band3/GPA; AE1
T1 sequence 1: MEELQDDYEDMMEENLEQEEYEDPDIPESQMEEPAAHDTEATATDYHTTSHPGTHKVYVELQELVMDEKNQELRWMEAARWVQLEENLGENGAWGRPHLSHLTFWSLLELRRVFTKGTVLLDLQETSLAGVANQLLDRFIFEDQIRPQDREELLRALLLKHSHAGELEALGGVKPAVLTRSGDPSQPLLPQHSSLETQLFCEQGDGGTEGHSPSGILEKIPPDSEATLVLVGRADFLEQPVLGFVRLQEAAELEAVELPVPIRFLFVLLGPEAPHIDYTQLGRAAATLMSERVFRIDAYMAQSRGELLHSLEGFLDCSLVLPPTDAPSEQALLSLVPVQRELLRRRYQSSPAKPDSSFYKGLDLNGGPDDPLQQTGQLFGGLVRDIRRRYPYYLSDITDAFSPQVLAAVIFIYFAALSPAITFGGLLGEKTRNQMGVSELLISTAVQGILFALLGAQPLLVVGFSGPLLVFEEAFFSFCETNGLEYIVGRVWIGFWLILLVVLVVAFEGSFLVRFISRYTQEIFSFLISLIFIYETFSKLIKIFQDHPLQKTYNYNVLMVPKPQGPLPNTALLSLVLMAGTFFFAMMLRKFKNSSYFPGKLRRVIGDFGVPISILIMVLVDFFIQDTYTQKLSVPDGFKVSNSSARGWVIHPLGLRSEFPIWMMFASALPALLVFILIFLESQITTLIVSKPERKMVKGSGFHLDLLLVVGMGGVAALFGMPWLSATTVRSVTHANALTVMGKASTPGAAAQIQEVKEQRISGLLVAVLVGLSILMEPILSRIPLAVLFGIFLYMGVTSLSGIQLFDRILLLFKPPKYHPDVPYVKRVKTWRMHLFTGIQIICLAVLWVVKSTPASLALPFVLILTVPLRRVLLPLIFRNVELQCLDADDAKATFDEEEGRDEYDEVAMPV
T1 sequence 2: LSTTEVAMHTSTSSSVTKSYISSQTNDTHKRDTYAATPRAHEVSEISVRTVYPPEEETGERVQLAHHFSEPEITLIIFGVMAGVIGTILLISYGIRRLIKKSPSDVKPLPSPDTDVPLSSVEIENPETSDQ
Assay: Fab/phage binding assays on human RBCs incl. rare RBC types lacking conserved antigens
Method: An IgG Fab/phage display library was prepared from the peripheral blood lymphocytes of a hyperimmunized macaque using homologous human V-region oligonucleotides (Siegel D L, R. M., Lee H, Blancher A., Production of large repertories of macaque mAbs to human RBCs using phage display. Transfusion, 1999. 39(S10): p. 92S, which is incorporated herein by reference). Fab/phage specific for human RBCs were isolated by panning on intact human RBCs. Monoclonal Fab/phage were grown to produce antibodies for immunoassays and their corresponding DNA was extracted for sequencing. To identify target epitopes, antibodies were screened against RBCs of known serologic phenotypes, including rare cells lacking highly conserved antigens, using standard immunohematologic techniques (Roback, J. D., Technical Manual. 2014: American Association of Blood Banks (AABB), which is incorporated herein by reference.)
Using antibody phage display, we identified non-human-primate Fab antibody fragments to antigenic determinants on human RBCs. By panning phage libraries on human RBCs, we produced a Fab/phage preparation with >10⁷ RBC-specific clones capable of agglutinating human RBCs. By performing binding assays against rare RBC types lacking highly conserved antigens and epitopes, we identified the target antigens of >30 of these clones. At least 34 clones bound the Wright b (Wrb) epitope formed by a Band 3/GPA interaction, present on the RBCs of essentially 100% of the human population. The Wrb epitope, determined by the protein sequence of Band 3, is a site of association between Band 3 with GPA, and GPA expression is simultaneously required for its presence on the membrane (Huang C H, Reid M E, Xie S S, Blumenfeld 00. Human red blood cell Wright antigens: a genetic and evolutionary perspective on glycophorin A-band 3 interaction. Blood. 1996; 87(9):3942-3947). At least 3 other clones bound to a highly-conserved epitope Rh17(Hr0) on human RhCE protein, also present on essentially 100% of the human population. Both these targets are specific for erythroid lineage (Rojewski M T, Schrezenmeier H, Flegel W A. Tissue distribution of blood group membrane proteins beyond red cells: evidence from cDNA libraries. Transfus Apher Sci.

Row | Binder | binding result
1 | B1 | binds
2 | B2 | binds
3 | B3 | binds
4 | B4 | binds
5 | B5 | binds
6 | B6 | binds
7 | B7 | binds
8 | B8 | binds
9 | B9 | binds
10 | B10 | binds
11 | B11 | binds
12 | B12 | binds
13 | B13 | binds
14 | B14 | binds
15 | B15 | binds
